Measurements published in patent US20060270596A1 (CENTRE NATIONAL DE LA RECHERCHE SCIENTIFIQUE CNRS, published 2006).
Each block holds one binder with its values, some of them ahead of it.

Experiments:
chemokine CXCL2 = molecular target: T1, chemokine CXCL2 (UniProt P19875 1-107, limits assumed); experiment: GST pull-down, 35S-labelled in vitro translated molecule
T1 construct: 35S-labelled in vitro translation product
T1 sequence (looked up): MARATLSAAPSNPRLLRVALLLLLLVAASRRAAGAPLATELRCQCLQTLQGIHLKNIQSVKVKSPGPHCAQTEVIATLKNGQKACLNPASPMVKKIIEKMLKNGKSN

[1] = molecular target: T2, THAP1-N3 deletion mutant (amino acids 1-192) (human, UniProt Q9NVV9 1-192); experiment: yeast two-hybrid
T2 construct: Gal4 fusion, in vitro translation product or GFP fusion according to assay
T2 sequence: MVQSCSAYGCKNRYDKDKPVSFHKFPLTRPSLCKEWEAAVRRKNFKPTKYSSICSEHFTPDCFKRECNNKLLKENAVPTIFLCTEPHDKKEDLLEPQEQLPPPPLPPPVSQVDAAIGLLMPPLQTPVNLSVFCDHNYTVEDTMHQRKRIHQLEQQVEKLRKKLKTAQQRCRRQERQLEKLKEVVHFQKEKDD

[2] = molecular target: T3, THAP1-N2 deletion mutant (amino acids 1-166) (human, UniProt Q9NVV9 1-166); experiment: yeast two-hybrid
T3 construct: Gal4 fusion, in vitro translation product or GFP fusion according to assay
T3 sequence: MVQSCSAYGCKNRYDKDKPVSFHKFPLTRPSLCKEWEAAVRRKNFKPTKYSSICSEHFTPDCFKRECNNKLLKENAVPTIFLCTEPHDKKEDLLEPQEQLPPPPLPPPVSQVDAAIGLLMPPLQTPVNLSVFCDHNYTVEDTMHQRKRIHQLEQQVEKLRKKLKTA

[3] = molecular target: T4, THAP1-C1 deletion mutant (amino acids 90-213) (human, UniProt Q9NVV9 90-213); experiment: yeast two-hybrid
T4 construct: Gal4 fusion, in vitro translation product or GFP fusion according to assay; also called THAP1-CL; THAP1ΔTHAP
T4 sequence: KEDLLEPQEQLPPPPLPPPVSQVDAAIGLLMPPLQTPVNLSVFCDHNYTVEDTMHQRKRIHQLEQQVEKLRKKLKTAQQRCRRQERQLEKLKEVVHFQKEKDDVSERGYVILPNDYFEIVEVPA

[4] = molecular target: T5, GST (glutathione S-transferase) control protein (UniProt P08515 1-218 = GST); experiment: GST pull-down, 35S-labelled in vitro translated SLC/CCL21
T5 construct: Negative control in GST pull-down assays; also called GST beads; GST alone
Experimental: To confirm the interaction observed in yeast two-hybrid system, we performed in vitro GST pull down assays. THAP1, expressed as a GST-tagged fusion protein and immobilized on glutathione sepharose, was incubated with radiolabeled in vitro translated SLC/CCL21.

[5] = molecular target: T6, THAP1ΔQRCRR mutant (deletion of residues 168-172) (human, UniProt Q9NVV9 1-213); experiment: yeast two-hybrid, SLC/CCL21 bait
T6 sequence: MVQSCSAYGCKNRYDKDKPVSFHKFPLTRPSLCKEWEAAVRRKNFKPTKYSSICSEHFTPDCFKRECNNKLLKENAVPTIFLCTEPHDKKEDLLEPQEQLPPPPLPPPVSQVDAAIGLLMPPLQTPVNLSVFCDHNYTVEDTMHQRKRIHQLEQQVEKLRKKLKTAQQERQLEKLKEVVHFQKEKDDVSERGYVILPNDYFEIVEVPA

[6] = molecular target: T7, human THAP1 (THanatos-Associated-Protein-1), full length (human, UniProt Q9NVV9 1-213); experiment: yeast two-hybrid, chemokine bait and THAP1 prey
T7 construct: these tags are not written into the chain; also called hTHAP1; THAP1 wild type
T7 sequence: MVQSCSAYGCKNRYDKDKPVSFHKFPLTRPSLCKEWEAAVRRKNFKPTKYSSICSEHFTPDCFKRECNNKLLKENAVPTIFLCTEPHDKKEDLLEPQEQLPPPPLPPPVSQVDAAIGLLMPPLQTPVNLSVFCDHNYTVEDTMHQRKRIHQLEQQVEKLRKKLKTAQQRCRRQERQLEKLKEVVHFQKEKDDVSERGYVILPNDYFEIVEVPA

T5 sequence (P08515 whole entry): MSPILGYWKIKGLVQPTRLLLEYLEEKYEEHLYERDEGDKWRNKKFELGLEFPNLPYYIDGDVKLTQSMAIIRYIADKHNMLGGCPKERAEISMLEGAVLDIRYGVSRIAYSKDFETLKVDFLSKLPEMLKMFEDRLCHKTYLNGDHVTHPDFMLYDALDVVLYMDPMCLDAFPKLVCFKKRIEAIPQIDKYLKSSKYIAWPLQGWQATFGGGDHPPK

binding result (chemokine CXCL2): no binding
B1: GST-THAP3 181-284 (chemokine-binding domain of THAP3) (other)
chain: LPPNAEGHVKQVSPRRPQATEAVGRPTGPAGLRRTPNKQPSDHSYALLDLDSLKKKLFLTLKENEKLRKRLQAQRLVMRRMSSRLRACKGHQGLQARLGPEQQS
notes: not shown: GST (glutathione S-transferase of pGEX2T) and its linker at the N end

binding result [1]: no binding | binding result [2]: no binding | binding result [3]: binds | binding result [4]: no binding | binding result [5]: no binding | binding result [6]: binds
B2: human chemokine SLC/CCL21, mature form (amino acids 24-134) (ligand)
chain: SDGGAQDCCLKYSQRKIPAKVVRSYRKQEPSLGCSIPAILFLPRKRSQAELCADPKELWVQQLMQHLDKTPSPQKPAQGCRKDRGASKTGKKGKGSKGCKRTERSQTPKGP
notes: GenBank NP-002980; Used as Gal4 fusion in two-hybrid and as 35S-labelled in vitro translation product in pull-downs; also called SLC/6Ckine; SLC/CCL21 wild type
